In article PMC7432914, “Corynebacterium glutamicum CrtR and Its Orthologs in Actinobacteria: Conserved Function and Application as Genetically Encoded Biosensor for Detection of Geranylgeranyl Pyrophosphate” (International Journal of Molecular Sciences, 2020):

Tests used:
[1] = biological target: T1, CrtRCc (CrtR from C. callunae) (Corynebacterium callunae, UniProt M1UIJ0); experiment: EMSA, inhibition of CrtR binding to own crtR promoter DNA and crtE promoter DNA; conditions: 100-650 uM GGPP, 15 min preincubation before DNA; pH 7.5, 10 mM MgCl2, room temperature
T1 construct: gene H924_00295; full length, N-terminal His-tag (pET16b) kept, E. coli BL21(DE3), Ni-NTA
T1 sequence (M1UIJ0 1-194): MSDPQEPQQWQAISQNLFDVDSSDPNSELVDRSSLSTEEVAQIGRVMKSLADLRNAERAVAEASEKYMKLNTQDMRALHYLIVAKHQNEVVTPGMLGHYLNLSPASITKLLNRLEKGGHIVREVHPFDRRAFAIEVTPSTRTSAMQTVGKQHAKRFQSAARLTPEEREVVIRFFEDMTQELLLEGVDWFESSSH

[2] = biological target: T2, CrtRPn (CrtR from P. nicotinovorans) (Paenarthrobacter nicotinovorans, UniProt A0ABT9TUN6); experiment: EMSA, inhibition of CrtR binding to own crtR promoter DNA; conditions: 100-650 uM GGPP, 15 min preincubation before DNA; pH 7.5, 10 mM MgCl2, room temperature
T2 construct: gene J2T10_004447; full length, N-terminal His-tag (pET16b) kept, E. coli BL21(DE3), Ni-NTA; gene divergent to idi, not the mmpL-linked paralog
T2 sequence (A0ABT9TUN6 1-195): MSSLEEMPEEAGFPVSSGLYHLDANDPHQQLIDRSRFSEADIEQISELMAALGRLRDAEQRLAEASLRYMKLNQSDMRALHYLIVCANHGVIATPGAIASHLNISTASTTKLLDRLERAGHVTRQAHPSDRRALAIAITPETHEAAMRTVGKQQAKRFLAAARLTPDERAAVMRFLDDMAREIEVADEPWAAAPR

[3] = biological target: T3, CrtR (CrtRCg) (Corynebacterium glutamicum ATCC 13032) (UniProt Q8NSP1); experiment: EMSA; conditions: 50 mM Tris-HCl pH 7.5, 10% glycerol, 50 mM KCl, 10 mM MgCl2, 0.5 mM EDTA; 20 uL, 30-90 ng DNA, 30 min at room temperature; 78 bp cg2228 upstream fragment …
T3 sequence: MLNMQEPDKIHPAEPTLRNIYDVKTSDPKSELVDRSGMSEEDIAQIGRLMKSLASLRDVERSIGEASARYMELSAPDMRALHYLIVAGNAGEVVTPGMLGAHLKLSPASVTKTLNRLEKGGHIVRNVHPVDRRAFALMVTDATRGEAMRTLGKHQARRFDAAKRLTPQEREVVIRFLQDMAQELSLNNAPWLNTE

[4] = test system: T4, CrtR ortholog (CrtRPc) (Pseudarthrobacter chlorophenolicus DSM 12829), ORF:f49de8fb; experiment: EMSA; conditions: 50 mM Tris-HCl pH 7.5, 10% glycerol, 50 mM KCl, 10 mM MgCl2, 0.5 mM EDTA; 20 uL, 30-90 ng DNA, 30 min at room temperature; 78 bp cg2228 upstream fragment …
T4 sequence: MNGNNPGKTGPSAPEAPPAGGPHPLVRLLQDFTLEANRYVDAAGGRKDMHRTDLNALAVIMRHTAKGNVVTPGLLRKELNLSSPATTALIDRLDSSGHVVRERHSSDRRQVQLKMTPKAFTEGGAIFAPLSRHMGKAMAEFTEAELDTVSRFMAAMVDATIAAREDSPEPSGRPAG

[5] = biological target: T5, CrtR (CrtRCg) (Corynebacterium glutamicum ATCC 13032, UniProt Q8NSP1 1-195); experiment: EMSA; strong binding; 50 mM Tris-HCl pH 7.5, 10% glycerol, 50 mM KCl, 10 mM MgCl2, 0.5 mM EDTA; 20 uL, 30-90 ng DNA, 30 min at room temperature; 78 bp cg2228 upstream fragment (negative control) in every sample; GGPP preincubated 15 min; conditions: protein: recombinant; tags: N-terminal His-tag (pET16b), not removed; chain copies: 2; blunt
T5 sequence: T3 sequence

[6] = biological target: T6, CrtR ortholog (CrtRPn) (Paenarthrobacter nicotinovorans DSM 420, UniProt A0ABT9TUN6 1-195); experiment: EMSA; no GGPP; not all DNA shifted; 50 mM Tris-HCl pH 7.5, 10% glycerol, 50 mM KCl, 10 mM MgCl2, 0.5 mM EDTA; 20 uL, 30-90 ng DNA, 30 min at room temperature; 78 bp cg2228 upstream fragment (negative control) in every sample; GGPP preincubated 15 min; conditions: protein: recombinant; tags: N-terminal His-tag (pET16b), not removed; chain copies: 2; blunt
T6 sequence: T2 sequence (A0ABT9TUN6 1-195)

What does the source list for `CC(C)=CCC/C(C)=C/CC/C(C)=C/CC/C(C)=C/COP(=O)(O)OP(=O)(O)O` [GGPP]?
EMSA, inhibition of CrtR binding to own crtR promoter DNA and crtE promoter DNA [1]: GGPP inhibited the interaction between the tested CrtR proteins and their target DNA; EMSA, inhibition of CrtR binding to own crtR promoter DNA [2]: GGPP inhibited the interaction between the tested CrtR proteins and their target DNA

How did the binding [3] turn out when “TGCCTTCCATGCGGATGGTCCACGCGGGACAAAGCGGAGTAGGATTGGTTCCACATTAGACTATCTCCATGATAGAGATAAGTGCCAGTCAAGCTTTTTCAACGGGGGCCTCCGCCGGGGGCTTCCACGGCTGAGCCAGGTAATGCCAAGGCAGCTGAAGTAATATCCCTCAGGGCCTGTGCGCAAAGACGGACGGCCCCACGAACTCCAGGAGGTGACCATGAACGGCAACAATCCGGGCA (double strand) [P. chlorophenolicus crtR-mmpl intergenic region (PcrtR)]” was run?
The binding was “binds more weakly”.

And the binding [4]?
Its binding is “binds”.

B1: C. callunae crtR-mmpl intergenic region (dsDNA)
DNA 1: CGCAAGATGCCGGGAAATACGCTCTGAAGAGGGGTTTTCATGGCCTTAAACCTTTATATATGCAAATTGTTAAATTATCCAACAGTGTAAGGTATCCCATTTTCTTAAAAAAAGGGTTAATATCCATCTATGTCCGATCCGCAA
DNA 2: TTGCGGATCGGACATAGATGGATATTAACCCTTTTTTTAAGAAAATGGGATACCTTACACTGTTGGATAATTTAACAATTTGCATATATAAAGGTTTAAGGCCATGAAAACCCCTCTTCAGAGCGTATTTCCCGGCATCTTGCG
Does B1 bind [5]?
Result: binds

B2: P. nicotinovorans crtR-idi intergenic region (dsDNA)
DNA 1: CATACTGCGCCTTCCTCCTGCAACCTGAGTCTTTACAGCAGCCCGAATATTGCTAGACAAGCTAGAAGAAAGGCTACCATGTAGGAAGTTAGGTGTAACATACTCAGCATG
DNA 2: CATGCTGAGTATGTTACACCTAACTTCCTACATGGTAGCCTTTCTTCTAGCTTGTCTAGCAATATTCGGGCTGCTGTAAAGACTCAGGTTGCAGGAGGAAGGCGCAGTATG
Which results are given for B2?
binding result [6]: binds; binding result [5]: binds
